We go through one molecule from US20200115433A1.

The assay concerns the target …-HLA-A2 complex (human). The experiment in a line: SPR BIAcore T200, single-cycle kinetics, pMHC on chip. In general terms: In SPR one partner is held on a chip, and binding of the other changes the refractive index at the surface.

B1: single chain TCR s-10 (TCR)
chain: SQQGEEDPQALSIQEGENVTINCSYKGWAQNRQNSGRGLVHLILIRSNEREKHSGRLRVTLDTSKKSSSLEITAVRPADTASYFCATDANARWDFGKGTRLHILPGGGSEGGGSEGGGSEGGGSEGGTGDAGVTQSPRHESVEMGQEVTLRCKPISGHDYLFWYRQTPKRGLELLIYFNHGAVIDDSGMPEDRFSAKMPNASFSTLKIQPVEPRDSAVYFCASQLGSNEQYFGPGTRLTVT
What is called Kd is the constant that tells how readily two partners part at equilibrium. The molecule B1 registered a dissociation constant (Kd) of 0.425 nM.
